Reference: paper PMC12416549 (2024)

T1: TNFR1 (Homo sapiens, UniProt P19438)
T1 chain: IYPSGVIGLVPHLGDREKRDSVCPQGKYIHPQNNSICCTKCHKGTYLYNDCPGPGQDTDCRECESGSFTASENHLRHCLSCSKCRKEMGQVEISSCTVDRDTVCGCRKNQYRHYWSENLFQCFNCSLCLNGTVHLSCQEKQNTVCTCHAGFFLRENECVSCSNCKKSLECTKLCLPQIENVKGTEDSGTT


Biological target: T1, TNFR1
Assay: yeast display SC50

Binder	apparent Kd (screen)
A36L (designed binder) SMEEEVEKAAKEYEKKKKEAIEKHLEKLKAKDKEALERFLKELEEAAKEYAKDEAKTMSEEEAKRRAKKYKEKVLLSELSEEEQKEIKEAEEKLVRTILKYVEEAAK	1.05 nM
K18D (designed binder) SMEEEVEKAAKEYEKKKDEAIEKHLEKLKAKDKEAAERFLKELEEAAKEYAKDEAKTMSEEEAKRRAKKYKEKVLLSELSEEEQKEIKEAEEKLVRTILKYVEEAAK	0.956 nM
A106M (designed binder) SMEEEVEKAAKEYEKKKKEAIEKHLEKLKAKDKEAAERFLKELEEAAKEYAKDEAKTMSEEEAKRRAKKYKEKVLLSELSEEEQKEIKEAEEKLVRTILKYVEEAMK	3.99 nM
E86G (designed binder) SMEEEVEKAAKEYEKKKKEAIEKHLEKLKAKDKEAAERFLKELEEAAKEYAKDEAKTMSEEEAKRRAKKYKEKVLLSELSEEEQKGIKEAEEKLVRTILKYVEEAAK	1.16 nM
F39E (designed binder) SMEEEVEKAAKEYEKKKKEAIEKHLEKLKAKDKEAAERELKELEEAAKEYAKDEAKTMSEEEAKRRAKKYKEKVLLSELSEEEQKEIKEAEEKLVRTILKYVEEAAK	4.83 nM
E91G (designed binder) SMEEEVEKAAKEYEKKKKEAIEKHLEKLKAKDKEAAERFLKELEEAAKEYAKDEAKTMSEEEAKRRAKKYKEKVLLSELSEEEQKEIKEAGEKLVRTILKYVEEAAK	9.41 nM
D32L (designed binder) SMEEEVEKAAKEYEKKKKEAIEKHLEKLKAKLKEAAERFLKELEEAAKEYAKDEAKTMSEEEAKRRAKKYKEKVLLSELSEEEQKEIKEAEEKLVRTILKYVEEAAK	2.73 nM
A36E (designed binder) SMEEEVEKAAKEYEKKKKEAIEKHLEKLKAKDKEAEERFLKELEEAAKEYAKDEAKTMSEEEAKRRAKKYKEKVLLSELSEEEQKEIKEAEEKLVRTILKYVEEAAK	0.446 nM
L99M (designed binder) SMEEEVEKAAKEYEKKKKEAIEKHLEKLKAKDKEAAERFLKELEEAAKEYAKDEAKTMSEEEAKRRAKKYKEKVLLSELSEEEQKEIKEAEEKLVRTIMKYVEEAAK	3 nM
E92K (designed binder) SMEEEVEKAAKEYEKKKKEAIEKHLEKLKAKDKEAAERFLKELEEAAKEYAKDEAKTMSEEEAKRRAKKYKEKVLLSELSEEEQKEIKEAEKKLVRTILKYVEEAAK	12.5 nM
E78G (designed binder) SMEEEVEKAAKEYEKKKKEAIEKHLEKLKAKDKEAAERFLKELEEAAKEYAKDEAKTMSEEEAKRRAKKYKEKVLLSGLSEEEQKEIKEAEEKLVRTILKYVEEAAK	3 nM
V102T (designed binder) SMEEEVEKAAKEYEKKKKEAIEKHLEKLKAKDKEAAERFLKELEEAAKEYAKDEAKTMSEEEAKRRAKKYKEKVLLSELSEEEQKEIKEAEEKLVRTILKYTEEAAK	0.446 nM
A106N (designed binder) SMEEEVEKAAKEYEKKKKEAIEKHLEKLKAKDKEAAERFLKELEEAAKEYAKDEAKTMSEEEAKRRAKKYKEKVLLSELSEEEQKEIKEAEEKLVRTILKYVEEANK	1.05 nM
V102A (designed binder) SMEEEVEKAAKEYEKKKKEAIEKHLEKLKAKDKEAAERFLKELEEAAKEYAKDEAKTMSEEEAKRRAKKYKEKVLLSELSEEEQKEIKEAEEKLVRTILKYAEEAAK	0.49 nM
K68D (designed binder) SMEEEVEKAAKEYEKKKKEAIEKHLEKLKAKDKEAAERFLKELEEAAKEYAKDEAKTMSEEEAKRRADKYKEKVLLSELSEEEQKEIKEAEEKLVRTILKYVEEAAK	1.27 nM
I21E (designed binder) SMEEEVEKAAKEYEKKKKEAEEKHLEKLKAKDKEAAERFLKELEEAAKEYAKDEAKTMSEEEAKRRAKKYKEKVLLSELSEEEQKEIKEAEEKLVRTILKYVEEAAK	0.539 nM
V74P (designed binder) SMEEEVEKAAKEYEKKKKEAIEKHLEKLKAKDKEAAERFLKELEEAAKEYAKDEAKTMSEEEAKRRAKKYKEKPLLSELSEEEQKEIKEAEEKLVRTILKYVEEAAK	0.446 nM

Next, values leading:

apparent Kd (screen)	Binder
2.73 nM	K64P (designed binder) SMEEEVEKAAKEYEKKKKEAIEKHLEKLKAKDKEAAERFLKELEEAAKEYAKDEAKTMSEEEAPRRAKKYKEKVLLSELSEEEQKEIKEAEEKLVRTILKYVEEAAK
0.446 nM	E26D (designed binder) SMEEEVEKAAKEYEKKKKEAIEKHLDKLKAKDKEAAERFLKELEEAAKEYAKDEAKTMSEEEAKRRAKKYKEKVLLSELSEEEQKEIKEAEEKLVRTILKYVEEAAK
0.79 nM	L40I (designed binder) SMEEEVEKAAKEYEKKKKEAIEKHLEKLKAKDKEAAERFIKELEEAAKEYAKDEAKTMSEEEAKRRAKKYKEKVLLSELSEEEQKEIKEAEEKLVRTILKYVEEAAK
0.869 nM	A30C (designed binder) SMEEEVEKAAKEYEKKKKEAIEKHLEKLKCKDKEAAERFLKELEEAAKEYAKDEAKTMSEEEAKRRAKKYKEKVLLSELSEEEQKEIKEAEEKLVRTILKYVEEAAK
20.2 nM	E3F (designed binder) SMFEEVEKAAKEYEKKKKEAIEKHLEKLKAKDKEAAERFLKELEEAAKEYAKDEAKTMSEEEAKRRAKKYKEKVLLSELSEEEQKEIKEAEEKLVRTILKYVEEAAK
2.73 nM	E45I (designed binder) SMEEEVEKAAKEYEKKKKEAIEKHLEKLKAKDKEAAERFLKELEIAAKEYAKDEAKTMSEEEAKRRAKKYKEKVLLSELSEEEQKEIKEAEEKLVRTILKYVEEAAK
0.446 nM	K48Q (designed binder) SMEEEVEKAAKEYEKKKKEAIEKHLEKLKAKDKEAAERFLKELEEAAQEYAKDEAKTMSEEEAKRRAKKYKEKVLLSELSEEEQKEIKEAEEKLVRTILKYVEEAAK
12.5 nM	I87Y (designed binder) SMEEEVEKAAKEYEKKKKEAIEKHLEKLKAKDKEAAERFLKELEEAAKEYAKDEAKTMSEEEAKRRAKKYKEKVLLSELSEEEQKEYKEAEEKLVRTILKYVEEAAK
0.49 nM	M2H (designed binder) SHEEEVEKAAKEYEKKKKEAIEKHLEKLKAKDKEAAERFLKELEEAAKEYAKDEAKTMSEEEAKRRAKKYKEKVLLSELSEEEQKEIKEAEEKLVRTILKYVEEAAK
